For the data set the following is noted: Saccharomyces cerevisiae (strain ATCC 204508 / S288c), Thermal, DSC, Sodium phosphate 0.1 M, reversible: yes.

Sequence of Cytochrome c isoform 1 wild type, P00044 (P00044 whole entry, canonical isoform): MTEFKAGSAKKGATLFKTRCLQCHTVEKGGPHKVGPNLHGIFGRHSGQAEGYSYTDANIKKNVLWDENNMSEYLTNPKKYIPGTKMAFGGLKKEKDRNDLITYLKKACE
Sequence of Cytochrome c isoform 1 C108A, P00044 (P00044 whole entry C108A, canonical isoform): as the sequence (P00044 whole entry, canonical isoform) above, with C108A counted along it

The Tm is the temperature at the midpoint of the melting transition. With Cytochrome c isoform 1 C108A, P00044, under “pH 5, structure 1YCC”, the Tm stood at 55.5 °C, the “unfolding enthalpy (calorimetric)” value was found to be 68.9 kcal/mol and the “unfolding enthalpy (van 't Hoff)” value was 99.2 kcal/mol. Also, where the note is “pH 6, structure 1YCC”, the Tm is 56.2 °C, the “unfolding enthalpy (calorimetric)” value amounted to 69.9 kcal/mol and the “unfolding enthalpy (van 't Hoff)” value is 104 kcal/mol.

Take “Cytochrome c isoform 1 wild type, P00044”: where the note is “pH 5”, the melting temperature (Tm) is 47.4 °C, the “unfolding enthalpy (calorimetric)” value came out at 58.3 kcal/mol and the “unfolding enthalpy (van 't Hoff)” value turned out to be 82.2 kcal/mol. In addition, where the note is “pH 6”, the Tm came to 50.7 °C, the “unfolding enthalpy (calorimetric)” value turned out to be 64.5 kcal/mol and the “unfolding enthalpy (van 't Hoff)” value is 92.2 kcal/mol.

The values above are taken from FireProtDB (doi:10.1021/bi00197a024).
